We go through 4 variants from IntAct's records for PubMed 20682316.

Sequences and labels used below:
B1: Oxysterols receptor LXR-alpha (Homo sapiens), Q13133 (parent)
chain: MSLWLGAPVPDIPPDSAVELWKPGAQDASSQAQGGSSCILREEARMPHSAGGTAGVGLEAAEPTALLTRAEPPSEPTEIRPQKRKKGPAPKMLGNELCSVCGDKASGFHYNVLSCEGCKGFFRRSVIKGAHYICHSGGHCPMDTYMRRKCQECRLRKCRQAGMREECVLSEEQIRLKKLKRQEEEQAHATSLPPRASSPPQILPQLSPEQLGMIEKLVAAQQQCNRRSFSDRLRVTPWPMAPDPHSREARQQRFAHFTELAIVSVQEIVDFAKQLPGFLQLSREDQIALLKTSAIEVMLLETSRRYNPGSESITFLKDFSYNREDFAKAGLQVEFINPIFEFSRAMNELQLNDAEFALLIAISIFSADRPNVQDQLQVERLQHTYVEALHAYVSIHHPHDRLMFPRMLMKLVSLRTLSSVHSEQVFALRLQDKKLPPLLSEIWDVHE
B2: Retinoic acid receptor RXR-alpha (Homo sapiens), P19793 (parent)
chain: MDTKHFLPLDFSTQVNSSLTSPTGRGSMAAPSLHPSLGPGIGSPGQLHSPISTLSSPINGMGPPFSVISSPMGPHSMSVPTTPTLGFSTGSPQLSSPMNPVSSSEDIKPPLGLNGVLKVPAHPSGNMASFTKHICAICGDRSSGKHYGVYSCEGCKGFFKRTVRKDLTYTCRDNKDCLIDKRQRNRCQYCRYQKCLAMGMKREAVQEERQRGKDRNENEVESTSSANEDMPVERILEAELAVEPKTETYVEANMGLNPSSPNDPVTNICQAADKQLFTLVEWAKRIPHFSELPLDDQVILLRAGWNELLIASFSHRSIAVKDGILLATGLHVHRNSAHSAGVGAIFDRVLTELVSKMRDMQMDKTELGCLRAIVLFNPDSKGLSNPAEVEALREKVYASLEAYCKHKYPEQPGRFAKLLLRLPALRSIGLKCLEHLFFFKLIGDTPIDTFLMEMLEAPHQMT

Variants of B1 are the subject of one experiment. The settings on record: with ncoa1_human NCOA1, Q15788.
Target sequence in this assay (Q15788 whole entry): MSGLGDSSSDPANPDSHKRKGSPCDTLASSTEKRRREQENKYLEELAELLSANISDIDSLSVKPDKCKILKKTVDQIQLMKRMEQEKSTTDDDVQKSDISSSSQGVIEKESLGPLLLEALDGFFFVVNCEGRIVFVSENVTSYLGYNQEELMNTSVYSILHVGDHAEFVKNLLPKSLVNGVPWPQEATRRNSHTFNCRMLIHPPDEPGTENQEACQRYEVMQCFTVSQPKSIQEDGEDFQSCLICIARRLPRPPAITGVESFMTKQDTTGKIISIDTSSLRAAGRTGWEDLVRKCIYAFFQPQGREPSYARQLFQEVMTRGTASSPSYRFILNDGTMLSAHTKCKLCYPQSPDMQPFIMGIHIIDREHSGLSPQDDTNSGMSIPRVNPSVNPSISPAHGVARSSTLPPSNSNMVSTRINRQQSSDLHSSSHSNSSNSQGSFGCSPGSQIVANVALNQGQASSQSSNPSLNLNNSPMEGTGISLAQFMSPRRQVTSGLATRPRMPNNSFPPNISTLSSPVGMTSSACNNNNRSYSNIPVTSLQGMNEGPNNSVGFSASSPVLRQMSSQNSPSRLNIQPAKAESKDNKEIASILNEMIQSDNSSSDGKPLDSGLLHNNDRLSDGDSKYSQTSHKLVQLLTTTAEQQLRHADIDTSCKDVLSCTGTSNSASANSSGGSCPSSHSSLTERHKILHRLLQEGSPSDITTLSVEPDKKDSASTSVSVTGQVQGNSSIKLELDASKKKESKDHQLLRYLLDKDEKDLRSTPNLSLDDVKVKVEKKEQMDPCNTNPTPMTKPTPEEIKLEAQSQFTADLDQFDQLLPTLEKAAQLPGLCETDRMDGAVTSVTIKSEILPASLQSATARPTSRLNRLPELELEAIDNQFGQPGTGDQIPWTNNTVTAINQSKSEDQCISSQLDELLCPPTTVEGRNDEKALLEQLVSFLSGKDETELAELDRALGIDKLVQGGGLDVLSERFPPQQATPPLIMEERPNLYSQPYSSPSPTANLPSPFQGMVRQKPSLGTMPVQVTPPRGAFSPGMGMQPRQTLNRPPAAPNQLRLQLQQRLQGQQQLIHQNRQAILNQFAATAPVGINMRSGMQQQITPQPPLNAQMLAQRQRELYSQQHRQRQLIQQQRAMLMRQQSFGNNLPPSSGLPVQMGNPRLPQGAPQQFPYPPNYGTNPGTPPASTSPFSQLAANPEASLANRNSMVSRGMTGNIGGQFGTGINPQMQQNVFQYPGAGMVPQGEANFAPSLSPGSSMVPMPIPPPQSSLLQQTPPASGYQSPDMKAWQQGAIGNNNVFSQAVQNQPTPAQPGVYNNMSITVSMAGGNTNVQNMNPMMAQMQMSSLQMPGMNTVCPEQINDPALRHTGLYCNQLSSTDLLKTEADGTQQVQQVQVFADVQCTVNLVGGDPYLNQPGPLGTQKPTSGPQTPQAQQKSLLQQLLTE
With MSLWLGAPVPDIPPDSAVELWKPGAQDASSQAQGGSSCILREEARMPHSAGGTAGVGLEAAEPTALLTRAEPPSEPTEIRPQKRKKGPAPKMLGNELCSVCGDKASGFHYNVLSCEGCKGFFRRSVIKGAHYICHSGGHCPMDTYMRRKCQECRLRKCRQAGMREECVLSEEQIRLKKLKRQEEEQAHATSLPPRASSPPQILPQLSPEQLGMIEKLVAAQQQCNRRSFSDRLRVTPWPMAPDPHSREARQQRFAHFTELAIVSVQEIVDFAAQLPGFLQLSREDQIALLKTSAIEVMLLETSRRYNPGSESITFLKDFSYNREDFAKAGLQVEFINPIFEFSRAMNELQLNDAEFALLIAISIFSADRPNVQDQLQVERLQHTYVEALHAYVSIHHPHDRLMFPRMLMKLVSLRTLSSVHSEQVFALRLQDKKLPPLLSEIWDVHE [K273A], the “effect of a mutation on the interaction” value is “disrupting interaction”.

A further experiment covers variants of B1. The note with it: with ncoa1_human NCOA1, Q15788. This is another data set of the same source.
Target sequence in this assay (Q15788 whole entry): as the sequence (Q15788 whole entry) above
For the variant MSLWLGAPVPDIPPDSAVELWKPGAQDASSQAQGGSSCILREEARMPHSAGGTAGVGLEAAEPTALLTRAEPPSEPTEIRPQKRKKGPAPKMLGNELCSVCGDKASGFHYNVLSCEGCKGFFRRSVIKGAHYICHSGGHCPMDTYMRRKCQECRLRKCRQAGMREECVLSEEQIRLKKLKRQEEEQAHATSLPPRASSPPQILPQLSPEQLGMIEKLVAAQQQCNRRSFSDRLRVTPWPMAPDPHSREARQQRFAHFTELAIVSVQEIVDFAKQLPGFLQLSREDQIALLKTSAIEVMLLETSRRYNPGSESITFLKDFSYNREDFAKAGLQVEFINPIFEFSRAMNELQLNDAEFALLIAISIFSADRPNVQDQLQVERLQHTYVEALHAYVSIHHPHDRLMFPRMLMKLVSLRTLSSVHSEQVFALRLQDKKLPPLLSAIWDVHE [E441A], the “effect of a mutation on the interaction” value is “disrupting interaction”.

Regarding MSLWLGAPVPDIPPDSAVELWKPGAQDASSQAQGGSSCILREEARMPHSAGGTAGVGLEAAEPTALLTRAEPPSEPTEIRPQKRKKGPAPKMLGNELCSVCGDKASGFHYNVLSCEGCKGFFRRSVIKGAHYICHSGGHCPMDTYMRRKCQECRLRKCRQAGMREECVLSEEQIRLKKLKRQEEEQAHATSLPPRASSPPQILPQLSPEQLGMIEKLVAAQQQCNRRSFSDRLRVTPWPMAPDPHSREARQQRFAHFTELAIVSVQEIVDFAKQLPGFLQLSREDQIALLKTSAIEVMLLETSRRYNPGSESITFLKDFSYNREDFAKAGLQVEFINPIFEFSRAMNELQLNDAEFALLIAISIFSADRPNVQDQLQVERLQHTYVEALHAYVSIHHPHDRLMFPRMLMKLVSLRTLSSVHSEQVFALRLQDKKLPPLLSEAWDVHE [I442A], the “effect of a mutation on the interaction” value was “disrupting interaction”.

In the next experiment the parent is B2. The settings on record: with ncoa1_human NCOA1, Q15788.
Target sequence in this assay (Q15788 whole entry): as the sequence (Q15788 whole entry) above
On to MDTKHFLPLDFSTQVNSSLTSPTGRGSMAAPSLHPSLGPGIGSPGQLHSPISTLSSPINGMGPPFSVISSPMGPHSMSVPTTPTLGFSTGSPQLSSPMNPVSSSEDIKPPLGLNGVLKVPAHPSGNMASFTKHICAICGDRSSGKHYGVYSCEGCKGFFKRTVRKDLTYTCRDNKDCLIDKRQRNRCQYCRYQKCLAMGMKREAVQEERQRGKDRNENEVESTSSANEDMPVERILEAELAVEPKTETYVEANMGLNPSSPNDPVTNICQAADKQLFTLVEWAARIPHFSELPLDDQVILLRAGWNELLIASFSHRSIAVKDGILLATGLHVHRNSAHSAGVGAIFDRVLTELVSKMRDMQMDKTELGCLRAIVLFNPDSKGLSNPAEVEALREKVYASLEAYCKHKYPEQPGRFAKLLLRLPALRSIGLKCLEHLFFFKLIGDTPIDTFLMEMLEAPHQMT [K284A], for which the “effect of a mutation on the interaction” value is listed as “disrupting interaction”.
